Reference: patent publication US20240400717A1, “Antibody Binding to CHI3L1 for Treating Cancer” (National Cheng Kung University, priority 2021, published 2024)
Each block holds one molecule with its values, some of them ahead of it.

Key:
[1] = molecular target: CHI3L1-receptor(s) interaction on HCT116, SW480, SW620, PANC1 and MiaPaCa-2 (Homo sapiens, UniProt P36222); test: Flow cytometry blockage of rCHI3L1-receptor(s) interaction, colorectal and pancreatic cancer cell lines; format: cell-based; settings: HCT116, SW480, SW620, PANC1, MiaPaCa-2, flow cytometry
Procedure: CHI3L1 have been reported to interact with several receptors on cancer cells, and trigger downstream signaling for cancer cell growth, proliferation and anti-apoptosis (Kamba et al. 2013; Lee et al. 2016). […] His-tagged rCHI3L1 was added for CHI3L1-receptor(s) interaction. Anti-His antibody AHAb with fluorescent F recognized CHI3L1-receptor(s) R complex for detection (left, FIG. 4A). Once fully human mAbs (nCHI3L1 Ab) blocked the CHI3L1-receptor(s) interaction, the fluorescent F signals were decreased (right, FIG. 4A) and cell signaling CS was blockade.
Four selected clones of mAbs including R4-4, R4-54, 293R3-2, and 293R3-4 were further tested for blocking effect on human colorectal (HCT116, SW480, and SW620) and pancreatic cancer cell lines (PANC1 and MiaPaCa-2). […] P values were determined by one-way ANOVA. * P<0.05, ** P<0.01, *** P<0.001, **** P<0.0001. For binding specificity examination, we further coated different concentration of recombinant CHI3L1 protein, and two other major proteins in chitinase family including human chitotriosidase-1 (CHIT1) and CHI3L2 from 2.5 μg/ml to 0 μg/ml, on 96-well plate.

HCT116 and A549 cells = test: Immunoblot of rCHI3L1-induced AKT and ERK phosphorylation, HCT116 and A549; format: cell-based, human; settings: HCT116 and A549, time course
Procedure: The involvement of CHI3L1 in intracellular signaling pathways has been reported. For example, CHI3L1 binding to CD44 activates protein kinase B (AKT) and extracellular signal-regulated kinase (ERK) signaling to promote cancer progression (Chen, Jiang et al. 2021). Thus, we tested whether mAb clones R4-4, R4-54, 293R3-2, and 293R3-4 could attenuate AKT and ERK phosphorylation in human pancreatic (PANC1), colorectal (HCT116), and lung (A549) cancer cell lines. PANC1 cells were treated with rCHI3L1 (100 ng/ml) only or rCHI3L1 with different dose of mAbs as indicated for 20 minutes.

[2] = system: MiaPaCa-2, SW480 and A549 cells; test: Wound healing assay with rCHI3L1; format: cell-based, human; settings: MiaPaCa-2, SW480, A549; 16 hours
Procedure: Since AKT regulates cell migration, we further performed wound healing assay to examine the anti-migratory effect of mAbs on pancreatic (MiaPaCa-2), colorectal (SW480), and lung (A549) cells. We observed that after 16 hours, the wound closure area was increased compared to that in control groups upon rCHI3L1 treatment. […] Taken together, our fully human monoclonal CHI3L1 neutralizing antibody clones R4-4, R4-54, 293R3-2, and 293R3-4 blocked the CHI3L1 induced signaling and cell behaviors of tumor cells. The data was presented as mean±S.D. (n=3 per group). P values were determined by one-way ANOVA. * P<0.05, ** P<0.01, *** P<0.001, **** P<0.0001.

hCHI3L1/flag-His [3] = molecular target: T1, hCHI3L1/flag-His (Homo sapiens, UniProt P36222); test: ForteBio biolayer interferometry binding analysis; settings: for koff / kon: mAb loaded on AHC sensor, analyte hCHI3L1
T1 construct: human CHI3L1 extracellular domain fused with flag and His tag
Procedure: Anti-CHI3L1 mAbs were loaded at 5 μg/mL on AHC (Anti-Human IgG Fc Capture, ForteBio, Cat #18-5060) for signal reach to approximate 0.5 nm. Sensors then were exposed to human CHI3L1 extracellular domain fused with flag and His tag recombinant protein, hCHI3L1/flag-His, solutions at 10 nM with 2 time serial dilution for 7 concentrations. Measurement were performed as follows: 1 min baseline in kinetic buffer, 5 minute association in 7 different concentrations hCHI3L1/flag-His and 5 minute dissociation into kinetic buffer. The kinetic parameters were calculated and produced by Octet Data Acquisition and Analysis Software.

hCHI3L1/flag-His [4] = molecular target: T1, hCHI3L1/flag-His; test: In tandem epitope binning on Octet Red96; format: binding; settings: for epitope cluster: among four anti-CHI3L1 mAbs; for competitive binding class, CHI3L1 293R3-2: paired with CHI3L1 293R3-2; for Epitope Binning Heat Map value, CHI3L1 293R3-2: paired with CHI3L1 293R3-2, 100 nM each; for competitive binding class, CHI3L1 293R3-4: paired with CHI3L1 293R3-4; for Epitope Binning Heat Map value, CHI3L1 293R3-4: paired with CHI3L1 293R3-4, 100 nM each; for competitive binding class, CHI3L1 R4-4: paired with CHI3L1 R4-4; for Epitope Binning Heat Map value, CHI3L1 R4-4: paired with CHI3L1 R4-4, 100 nM each; for competitive binding class, CHI3L1 R4-54: paired with CHI3L1 R4-54; for Epitope Binning Heat Map value, CHI3L1 R4-54: paired with CHI3L1 R4-54, 100 nM each
Procedure: In order to know the epitopic coverage for those four antibodies to increase the success of therapeutic CHI3L1 antibody development, epitope binning is used to characterize the binding site of mAbs to the corresponding antigen and summarized in the Table 4. In epitope binning, mAbs specific to the same target protein are tested pairwise against all mAbs in a set to assess whether they block one another's binding to a specific site of the antigen or not. The mAbs that block binding to the same epitope are “binned” together. mAbs within the same bin often function similarly, so epitope bins can narrow down the choices to fewer candidates for investigators to choose from. The in tandem epitope binning assay conducted on Octet Red96 comprised a five-step binding cycle; 1) a buffer baseline was established for 30 sec, 2) 100 nM hCHI3L1/flag-His was captured for 5 min, 3) 100 nM mAb array was loaded to saturate the captured antigen for 10 min, 4) 100 nM of the test mAb was bound for 5 min, and 5) the capture surfaces were regenerated for 30 sec. Anti-His surfaces were regenerated with 10 mM glycine pH 1.7. Raw data was processed using ForteBio's Data Analysis HT Software 11.1 and the antibody pairs were assessed for competitive binding. Additional binding by the second antibody indicates an unoccupied epitope (non-competitor, marked as *c in Table 4), while no binding indicates epitope blocking (competitor, marked as *b in Table 4) and self-competing antibodies were marked as *a in Table 4. Among four anti-CHI3L1 mAbs, there are two epitope clusters.

MiaPaCa-2 cells = test: MiaPaCa-2 subcutaneous xenograft NOD-SCID mice, efficacy and toxicity; format: in vivo
Procedure: Next, we examined whether our mAb clones R4-4 and R4-54 exert any toxicity in vivo. We performed a xenograft model by subcutaneously implanting MiaPaCa-2 cells to NOD-SCID mice. The mice were i.v. injected with IgG isotype, mAb clone R4-4, or clone R4-54 (5 mg/kg) once a week starting from day 7 to day 21, that is, day 7, day 14, and day 21, and mice were sacrificed on day 28. […] To evaluate the potential safety of our developed mAbs, we examined body weight, serum biochemical markers and histology sections of three major organs of tumor-bearing mice. […] Scale bar 100 μm. P values were determined by one-way ANOVA. * P<0.05, ** P<0.01, *** P<0.001, **** P<0.0001.

T1 sequence (P36222 22-383): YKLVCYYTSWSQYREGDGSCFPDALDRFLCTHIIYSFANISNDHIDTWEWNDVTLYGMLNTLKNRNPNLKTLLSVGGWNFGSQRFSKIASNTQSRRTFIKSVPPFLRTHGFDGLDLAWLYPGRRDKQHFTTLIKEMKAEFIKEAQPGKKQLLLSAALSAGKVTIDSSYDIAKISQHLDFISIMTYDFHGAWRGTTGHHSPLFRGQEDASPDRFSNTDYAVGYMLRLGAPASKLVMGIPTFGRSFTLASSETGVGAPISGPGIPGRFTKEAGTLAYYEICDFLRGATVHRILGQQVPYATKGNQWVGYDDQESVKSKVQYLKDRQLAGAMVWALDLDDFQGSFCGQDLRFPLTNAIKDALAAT
Chain of CHI3L1-receptor(s) interaction on HCT116, SW480, SW620, PANC1 and MiaPaCa-2 (P36222 22-383): as above

rCHI3L1 binding to cells [1]: significantly reduced | koff (hCHI3L1/flag-His [3]): 0.00302 s⁻¹ | kon (hCHI3L1/flag-His [3]): 1.08e+06 M⁻¹ s⁻¹ | epitope cluster (hCHI3L1/flag-His [4]): unidirectional blocking results | competitive binding class, CHI3L1 293R3-2 (hCHI3L1/flag-His [4]): *^a | Epitope Binning Heat Map value, CHI3L1 293R3-2 (hCHI3L1/flag-His [4]): 0.2110 | competitive binding class, CHI3L1 293R3-4 (hCHI3L1/flag-His [4]): *^c | Epitope Binning Heat Map value, CHI3L1 293R3-4 (hCHI3L1/flag-His [4]): 0.6303 | competitive binding class, CHI3L1 R4-4 (hCHI3L1/flag-His [4]): *^c | Epitope Binning Heat Map value, CHI3L1 R4-4 (hCHI3L1/flag-His [4]): 0.7478 | competitive binding class, CHI3L1 R4-54 (hCHI3L1/flag-His [4]): *^c | Epitope Binning Heat Map value, CHI3L1 R4-54 (hCHI3L1/flag-His [4]): 0.7349
B1: 293R3-2: fully human anti-CHI3L1 IgG1 mAb, Table 1 No. 2; heavy chain SEQ ID NO: 65, light chain SEQ ID NO: 66 (antibody, listed as Homo sapiens)
VH: QVQLQESGPGLVEPSGTLSLTCAVSGGSISSSNWWSWVRQHPGKGLEWIGEIYHSGSTNYNPSLRSRVTISVDKSKNQFSLELSSVTAADTAVYYCAGDQRMEDDAFDIWGQGTMVTVSS
light: QSALTQPASVSGSPGQSITISCTGTSSDVGGYNYVSWYQQHPGKAPKLMIYDVSNRPSGVSNRFSGSKSGNTASLTISGLQAEDEADYYCSSYTSSSTLYVFGTGTKVTVLGQPKANPTVTLFPPSSEELQANKATLVCLISDFYPGAVTVAWKADGSPVKAGVETTKPSKQSNNKYAASSYLSLTPEQWKSHRSYSCQVTHEGSTVEKTVAPTECS
p-AKT and p-ERK levels induced by rCHI3L1 (HCT116 and A549 cells): Inhibition of p-AKT and p-ERK | cell migration ability induced by rCHI3L1 (wound closure area) [2]: significantly reduced cell migration ability

rCHI3L1 binding to cells [1]: significantly reduced | binding kinetics profile compare to other mAbs (hCHI3L1/flag-His [3]): slower on-rate (kon) and off-rate (koff) | koff (hCHI3L1/flag-His [3]): 0.000353 s⁻¹ | epitope cluster (hCHI3L1/flag-His [4]): exclusive epitope | competitive binding class, CHI3L1 293R3-2 (hCHI3L1/flag-His [4]): *^c | Epitope Binning Heat Map value, CHI3L1 293R3-2 (hCHI3L1/flag-His [4]): 0.5680 | competitive binding class, CHI3L1 293R3-4 (hCHI3L1/flag-His [4]): *^c | competitive binding class, CHI3L1 R4-4 (hCHI3L1/flag-His [4]): *^a | Epitope Binning Heat Map value, CHI3L1 R4-4 (hCHI3L1/flag-His [4]): 0.1232 | competitive binding class, CHI3L1 R4-54 (hCHI3L1/flag-His [4]): *^c | Epitope Binning Heat Map value, CHI3L1 R4-54 (hCHI3L1/flag-His [4]): 1.3845
B2: R4-4: fully human anti-CHI3L1 IgG1 mAb, Table 1 No. 9; heavy chain SEQ ID NO: 9, light chain SEQ ID NO: 10 (antibody, listed as Homo sapiens)
VH: EVQLLESGGGLLQPGGSLRLSCAASGLTFRNYAMTWVRQAPGKGLEWVSTISGNGDETFYADSVKGHFTISRDNSKDTVYLQMNSLRAEDTAVYYCAKGGHYSFFDSWGQGSPVTVSS
light: NFMLTQPHSVSESPGKTVTISCTRSSGSIASNYVQWYQQRPGSSPTTVIYEDNQRPSGVPDRFSGSIDSSSNSASLTISGLKTEDEADYYCQSYDSSNYVFGTGTKVTVLGQPKANPTVTLFPPSSEELQANKATLVCLISDFYPGAVTVAWKADGSPVKAGVETTKPSKQSNNKYAASSYLSLTPEQWKSHRSYSCQVTHEGSTVEKTVAPAECS
p-AKT and p-ERK levels induced by rCHI3L1 (HCT116 and A549 cells): Inhibition of p-AKT and p-ERK | cell migration ability induced by rCHI3L1 (wound closure area) [2]: significantly reduced cell migration ability | histology of liver, lung and kidney (MiaPaCa-2 cells; 5 mg/kg i.v.): no significant adverse effects | growth of MiaPaCa-2 subcutaneous xenografts (MiaPaCa-2 cells; 5 mg/kg i.v. day 7, 14, 21, sacrificed day 28): significantly delayed the growth | mice body weight (MiaPaCa-2 cells; 5 mg/kg i.v., vs IgG control): no significant change in mice body weight | serum level of GOT, GPT, BUN, albumin and creatinine (MiaPaCa-2 cells; 5 mg/kg i.v., vs IgG control): No obvious difference

rCHI3L1 binding to cells [1]: significantly reduced | koff (hCHI3L1/flag-His [3]): 0.00722 s⁻¹ | kon (hCHI3L1/flag-His [3]): 1.83e+06 M⁻¹ s⁻¹ | epitope cluster (hCHI3L1/flag-His [4]): unidirectional blocking results | competitive binding class, CHI3L1 293R3-2 (hCHI3L1/flag-His [4]): *^b | Epitope Binning Heat Map value, CHI3L1 293R3-2 (hCHI3L1/flag-His [4]): 0.1221 | competitive binding class, CHI3L1 293R3-4 (hCHI3L1/flag-His [4]): *^a | Epitope Binning Heat Map value, CHI3L1 293R3-4 (hCHI3L1/flag-His [4]): 0.3014 | competitive binding class, CHI3L1 R4-4 (hCHI3L1/flag-His [4]): *^c | Epitope Binning Heat Map value, CHI3L1 R4-4 (hCHI3L1/flag-His [4]): 1.1089 | competitive binding class, CHI3L1 R4-54 (hCHI3L1/flag-His [4]): *^c | Epitope Binning Heat Map value, CHI3L1 R4-54 (hCHI3L1/flag-His [4]): 0.4217
B3: 293R3-4: fully human anti-CHI3L1 IgG1 mAb, Table 1 No. 4; heavy chain SEQ ID NO: 73, light chain SEQ ID NO: 74 (antibody, listed as Homo sapiens)
VH: EVQLVQSGAEVKKPGATVKISCKVSGYSFTDYYIHWVQQAPGKGLEWMGFVDPENGETIYAEKFQGRVTITADTSTDTAYMELSSLRSDDTAVYYCATDRDYDDSSGNAFDIWGQGTMVTVSS
light: SYELTQPPSVSVSTGQTATITCSGDILGDEYAFWYQQKAGQSPVLVIYLDTRRPSGIPERFSGSNSGDTATLTISETQPVDEAVYFCQGWDSSTALYVFGTGTKVTVLGQPKANPTVTLFPPSSEELQANKATLVCLISDFYPGAVTVAWKADGSPVKAGVETTKPSKQSNNKYAASSYLSLTPEQWKSHRSYSCQVTHEGSTVEKTVAPTECS
p-AKT and p-ERK levels induced by rCHI3L1 (HCT116 and A549 cells): Inhibition of p-AKT and p-ERK | cell migration ability induced by rCHI3L1 (wound closure area) [2]: significantly reduced cell migration ability
